Reference: patent US20230165970A1, “COMPOSITIONS AND METHODS FOR THE TREATMENT OF BACTERIAL INFECTIONS” (priority 2017, published 2023)

What was measured:
Assay in all cases: MIC assay (broth microdilution, RPMI + 5% LB)
Type in all cases: cell-based
[1] = tested on: Escherichia coli BW25113 + pUC18-mcr-1; settings: assay media RPMI A
Source text: An mcr-1 expression plasmid was constructed (GenScript; Piscataway, N.J.) using the pUC18 high copy number plasmid (Yanisch-Perron, et al., 1985). A 1649-bp fragment was synthesized containing, in order from 5′ to 3′: EcoR1 restriction site (5′-GAATTC-3), a ribosomal binding site (5′-AGGAGG-3′), a 5-bp native start codon upstream sequence (5′-TTCTC-3′) from the mcr-1-bearing plasmid pHNSHP45 (Liu, Y Y, et al., 2015; GenBank Accession #KP347127), the 1626-bp mcr-1 open reading frame with stop codon (“orf00073” of GenBank Accession #KP347127), and finally an Xba1 restriction site sequence (5′-TCTAGA-3′). […] The pUC18-mcr-1 plasmid was transformed into chemically-competent E. coli BW25113 (Coli Genetic Stock Center #7636) as described previously (Chung, et al., PNAS. 1989), recovered for 1 h shaking at 37° C. in Super Optimal broth with Catabolite repression (SOC) media and then aliquots were plated on Luria-Bertani (LB) media containing 100 μg/mL of carbenicillin. Putative transformant colonies were then verified in MIC assays.
(§1) Bacterial strains were stored as glycerol stocks at −80° C. prior to culturing on cation-adjusted Mueller-Hinton agar (MHA; BD cat. no. 211438) at 37° C. Antibacterial activity was assessed against a panel consisting of Escherichia coli, Acinetobacter baumannii, Pseudomonas aeruginosa, and Klebsiella pneumoniae strains (see Table 2).
Briefly, stock solutions of all antibacterial agents were prepared fresh in appropriate solvents (i.e. PBS, pH 7.4. DMSO, DI, etc.). Stock concentrations were made at 50× the highest final assay concentration and serially diluted 2-fold, 8 or 12 times in a 96-well PCR plate (VWR cat. no. 83007-374). Bacterial cell suspensions generated from MHA plate cultures were prepared in 0.85% saline and adjusted to ˜0.1 OD600 nm. […] Later, conjugates 16 and 17, and 20-25 were evaluated in RPMI 1640 medium (+) L-glutamine, (+) sodium bicarbonate, pH 7.4 (“RPMI B”; Gibco, cat. no. 11875-085) as has been described as a more physiologically-relevant media for susceptibility testing of antibacterial compounds. […]

[2] = tested on: Escherichia coli BW25113 4X-12 (COL-R; PmrB-Leu10Pro); settings: assay media RPMI A
Procedure: as §1
(§2) Briefly, stock solutions of all antibacterial agents were prepared fresh in appropriate solvents (i.e. PBS, pH 7.4. DMSO, DI, etc.). Stock concentrations were made at 50× the highest final assay concentration and serially diluted 2-fold, 8 or 12 times in a 96-well PCR plate (VWR cat. no. 83007-374). Bacterial cell suspensions generated from MHA plate cultures were prepared in 0.85% saline and adjusted to ˜0.1 OD600 nm. Next, cell suspensions were diluted 1:200 in RPMI containing 5% Luria Broth (LB) to improve bacterial growth (BD Difco, cat. no. 244620) to a concentration of ˜5×10^5 CFU (colony-forming units)/mL. […] Later, conjugates 16 and 17, and 20-25 were evaluated in RPMI 1640 medium (+) L-glutamine, (+) sodium bicarbonate, pH 7.4 (“RPMI B”; Gibco, cat. no. 11875-085) as has been described as a more physiologically-relevant media for susceptibility testing of antibacterial compounds. Dorschner R A et al., The mammalian ionic environment dictates microbial susceptibility to antimicrobial defense peptides. FASEB J. 20(1):35-42 […]. Ninety-eight microliters of each cell suspension in MHB were added to test wells in a 96-well assay plate (Costar cat. no. 3370). A Beckman Multimek 96 liquid handling robot was used to dispense 2 μL of each 50× stock compound into the plate containing 98 μL of each strain in MHB (2% final solvent concentration). E. coli strains BW25113 and ATCC 25922 were run in the presence and absence of 50% heat-inactivated fetal bovine serum (FBS; Sigma, cat. no. F4135-100 mL). Plates were mixed by shaking then incubated at 37° C. overnight (16-20 h).

[3] = tested on: Pseudomonas aeruginosa PAO1; settings: assay media RPMI A
Procedure: as §1, §2

[4] = tested on: Acinetobacter baumannii AB5075; settings: assay media RPMI A
Procedure: as §1
(§3) Briefly, stock solutions of all antibacterial agents were prepared fresh in appropriate solvents (i.e. PBS, pH 7.4. DMSO, DI, etc.). Stock concentrations were made at 50× the highest final assay concentration and serially diluted 2-fold, 8 or 12 times in a 96-well PCR plate (VWR cat. no. 83007-374). Bacterial cell suspensions generated from MHA plate cultures were prepared in 0.85% saline and adjusted to ˜0.1 OD600 nm. […] Dorschner R A et al., The mammalian ionic environment dictates microbial susceptibility to antimicrobial defense peptides. FASEB J. 20(1):35-42 (2017). Ninety-eight microliters of each cell suspension in MHB were added to test wells in a 96-well assay plate (Costar cat. no. 3370). A Beckman Multimek 96 liquid handling robot was used to dispense 2 μL of each 50× stock compound into the plate containing 98 μL of each strain in MHB (2% final solvent concentration). E. coli strains BW25113 and ATCC 25922 were run in the presence and absence of 50% heat-inactivated fetal bovine serum (FBS; Sigma, cat. no. F4135-100 mL). Plates were mixed by shaking then incubated at 37° C. overnight (16-20 h).

[5] = tested on: Acinetobacter baumannii ATCC 19606; settings: assay media RPMI A
Procedure: as §1, §3

[6] = tested on: Escherichia coli ATCC BAA-2469; settings: assay media RPMI A
Procedure: as §1, §3

Escherichia coli BW25113 = settings: assay media RPMI A; for MIC Ec BW + FBS: 50% heat-inactivated FBS
[7] = tested on: Escherichia coli ATCC 25922; settings: assay media RPMI A; for MIC Ec 25922 + FBS: 50% heat-inactivated FBS
[8] = tested on: Acinetobacter baumannii ATCC 17978; settings: assay media RPMI A
Procedure: as §1, §2

[9] = tested on: Pseudomonas aeruginosa ATCC 27853; settings: assay media RPMI A
Procedure: as §1, §2

Row | Molecule | MIC Ec BW (mcr-1) [1] [µg/mL] | MIC Ec BW 4X-12 (COL-R) [2] [µg/mL] | MIC Pa PAO1 [3] [µg/mL] | MIC Ab AB5075 [4] [µg/mL] | MIC Ab 19606 [5] [µg/mL] | MIC Ec 2469 [6] [µg/mL] | MIC Ec BW (Escherichia coli BW25113) [µg/mL] | MIC Ec BW + FBS (Escherichia coli BW25113) [µg/mL] | MIC Ec 25922 [7] [µg/mL] | MIC Ec 25922 + FBS [7] [µg/mL] | MIC Ab 17978 [8] [µg/mL] | MIC Pa 27853 [9] [µg/mL]
1 | Conjugate 4 (conjugate, cyclised or stapled) PRGPTIKPCPPCKCPAPNLLGGPSVFIFPPKIKDVLMISLSPIVTCVVVDVSEDDPDVQISWFVNNVEVHTAQTQTHREDYNSTLRVVSALPIQHQDWMSGKEFKCKVNNKDLPAPIERTISKPKGSVRAPQVYVLPPPEEEMTKKQVTLTCMVTDFMPEDIYVEWTNNGKTELNYKNTEPVLDSDGSYFMYSKLRVEKKNWVERNSYSCSVVHEGLHNHHTTKSFSRTPGKHHHHHH | >128 | >128 | 16 | 32 | 32 | >128 | 32 | 32 | >128 | 64 |  | 
2 | Conjugate 26: "Conjugate of m-IgG2a(His)6 Fc-3 (Int-13)"; SEQ ID NO: 6, procedure uses Int-10, DAR=2/Fc dimer (conjugate, conjugated small molecule Int-13, DAR 2) PRGPTIKPCPPCKCPAPNLLGGPSVFIFPPKIKDVLMISLSPIVTCVVVDVSEDDPDVQISWFVNNVEVHTAQTQTHREDYNSTLRVVSALPIQHQDWMSGKEFKCKVNNKDLPAPIERTISKPKGSVRAPQVYVLPPPEEEMTKKQVTLTCMVTDFMPEDIYVEWTNNGKTELNYKNTEPVLDSDGSYFMYSKLRVEKKNWVERNSYSCSVVHEGLHNHHTTKSFSRTPGKHHHHHH | >128 | >128 | 64 | 32 | 128 | 32 | 16 | 32 | >128 | 128 | 64 | 16
3 | Conjugate 15 (conjugate, cyclised or stapled) PRGPTIKPCPPCKCPAPNLLGGPSVFIFPPKIKDVLMISLSPIVTCVVVDVSEDDPDVQISWFVNNVEVHTAQTQTHREDYNSTLRVVSALPIQHQDWMSGKEFKCKVNNKDLPAPIERTISKPKGSVRAPQVYVLPPPEEEMTKKQVTLTCMVTDFMPEDIYVEWTNNGKTELNYKNTEPVLDSDGSYFMYSKLRVEKKNWVERNSYSCSVVHEGLHNHHTTKSFSRTPGKHHHHHH | >128 | >128 | 16 | >128 | >128 | >128 | >128 | >128 | >128 | >128 |  | 
